Results on two substances are retold here after paper PMC12749422.

One may read the stoichiometry N as a count of units in the complex or per binding partner.

The target of test [1] is A/Singapore/INFIMH/16 (Sing/16) H3 hemagglutinin, recombinant HA-GCN4-2x sfGFP, glycosylated (influenza A virus A/Singapore/INFIMH/16 (H3N2)). Put plainly: cryo-EM structure.
Test [2] concerns the target A/Singapore/INFIMH/16 (Sing/16) H3 hemagglutinin, recombinant HA-GCN4-2x sfGFP, treated with endo H (influenza A virus A/Singapore/INFIMH/16 (H3N2)). Description: cryo-EM structure.

For “A/Singapore/INFIMH/16 (Sing/16) H3 hemagglutinin, recombinant HA-GCN4-2x sfGFP, glycosylated (natural protein)”, the stoichiometry N in test [1] amounted to 3.
Take “A/Singapore/INFIMH/16 (Sing/16) H3 hemagglutinin, recombinant HA-GCN4-2x sfGFP, treated with endo H (natural protein)”: in test [2], the stoichiometry N was determined as 3.
